This assay addresses T1, complement C5a receptor (mouse (endogenous in Peyer's patch LysoDCs)) (UniProt P30993).
T1 sequence: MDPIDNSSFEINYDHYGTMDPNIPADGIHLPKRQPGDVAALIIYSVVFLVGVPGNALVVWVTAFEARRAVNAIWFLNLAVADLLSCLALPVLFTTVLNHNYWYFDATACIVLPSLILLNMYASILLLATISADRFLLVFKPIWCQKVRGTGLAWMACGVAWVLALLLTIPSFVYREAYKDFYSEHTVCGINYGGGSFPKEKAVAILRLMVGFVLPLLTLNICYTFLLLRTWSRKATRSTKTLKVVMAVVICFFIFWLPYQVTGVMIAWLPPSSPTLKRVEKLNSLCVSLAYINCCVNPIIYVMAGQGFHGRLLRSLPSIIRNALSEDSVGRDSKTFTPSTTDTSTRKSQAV

The molecule SFHQLPARSPLP [Co1 peptide] yielded a CCL2 (MCP-1) in the culture supernatant of C5aR+ LysoDCs treated with Co1 peptide (10 uM, 24 h), against untreated C5aR+ LysoDCs and Co1-treated C5aR- LysoDCs greater than 2 fold; a CCL3 (MIP-1alpha) in the culture supernatant of C5aR+ LysoDCs treated with Co1 peptide (10 uM, 24 h), against untreated C5aR+ LysoDCs and Co1-treated C5aR- LysoDCs greater than 2 fold.

Values taken from PMC10425327.
